B1: DVD464 (bispecific antibody, IgG1)
VH: EVQLVESGGGLVQPGGSLRLSCAASGFTINASWIHWVRQAPGKGLEWVGAIYPYSGYTNYADSVKGRFTISADTSKNTAYLQMNSLRAEDTAVYYCARWGHSTSPWAMDYWGQGTLVTVSSASTKGPQVQLVQSGAEVKKPGASVKISCKASGYSFTAYYIHWVKQAPGQGLEWIGYISSYNGATNYNQKFKGRVTFTTDTSTSTAYMELRSLRSDDTAVYYCARDYDYDVGMDYWGQGTLVTVSS
VL: DIQMTQSPSSLSASVGDRVTITCRASQVIRRSLAWYQQKPGKAPKLLIYAASNLASGVPSRFSGSGSGTDFTLTISSLQPEDFATYYCQQSNTSPLTFGQGTKVEIKRTVAAPSVFIFPPDIVMTQSPDSLAVSLGERATISCRASESVDNYGISFMKWFQQKPGQPPKLLIYAASNQGSGVPDRFSGSGSGTDFTLTISSLQAEDVAVYYCQQSKEVPWTFGGGTKVEIKR
notes: DVD-Ig, outer AB071 / inner AB069; HC linker short, LC linker long; also called DVD464H; DVD464L
B2: DVD524 (bispecific antibody, IgG1)
VH: EVQLVESGGGLVQPGGSLRLSCAASGYTFTNYGMNWVRQAPGKGLEWVGWINTYTGEPTYAADFKRRFTFSLDTSKSTAYLQMNSLRAEDTAVYYCAKYPHYYGSSHWYFDVWGQGTLVTVSSASTKGPSVFPLAPEVQLQQSGPELEKPGASVKISCKASGYSFTGYNMNWVKQSNGKSLEWIGNIDPYFGGTNYNQKFKGKATLTVDKSSSTAYMQLKSLTSEDSAVYYCARNYDYDGGCFDYWGQGTTLTVSS
VL: DIQMTQSPSSLSASVGDRVTITCSASQDISNYLNWYQQKPGKAPKVLIYFTSSLHSGVPSRFSGSGSGTDFTLTISSLQPEDFATYYCQQYSTVPWTFGQGTKVEIKRTVAAPQAVVTQESALTTSPGETVTLTCRSSTGAVTTSNYANWVQEKPDHLFTGLIGGTNNRAPGVPARFSGSLIGDKAALTITGAQTEDEAIYFCALWYSNHWVFGGGTKLTVLG
notes: HC linker long, LC linker short; also called DVD524H; DVD524L
B3: DVD463 (bispecific antibody, IgG1)
VH: QVQLVQSGAEVKKPGASVKISCKASGYSFTAYYIHWVKQAPGQGLEWIGYISSYNGATNYNQKFKGRVTFTTDTSTSTAYMELRSLRSDDTAVYYCARDYDYDVGMDYWGQGTLVTVSSASTKGPEVQLVESGGGLVQPGGSLRLSCAASGFTINASWIHWVRQAPGKGLEWVGAIYPYSGYTNYADSVKGRFTISADTSKNTAYLQMNSLRAEDTAVYYCARWGHSTSPWAMDYWGQGTLVTVSS
VL: DIVMTQSPDSLAVSLGERATISCRASESVDNYGISFMKWFQQKPGQPPKLLIYAASNQGSGVPDRFSGSGSGTDFTLTISSLQAEDVAVYYCQQSKEVPWTFGGGTKVEIKRTVAAPSVFIFPPDIQMTQSPSSLSASVGDRVTITCRASQVIRRSLAWYQQKPGKAPKLLIYAASNLASGVPSRFSGSGSGTDFTLTISSLQPEDFATYYCQQSNTSPLTFGQGTKVEIKR
notes: DVD-Ig, outer AB069 / inner AB071; HC linker short, LC linker long; also called DVD463H; DVD463L
B4: DVD449 (bispecific antibody, IgG1)
VH: QVQLVQSGAEVKKPGASVKISCKASGYSFTAYYIHWVKQAPGQGLEWIGYISSYNGATNYNQKFKGRVTFTTDTSTSTAYMELRSLRSDDTAVYYCARDYDYDVGMDYWGQGTLVTVSSASTKGPSVFPLAPEVQLVESGGGLVQPGGSLRLSCAASGFTISDYWIHWVRQAPGKGLEWVAGITPAGGYTYYADSVKGRFTISADTSKNTAYLQMNSLRAEDTAVYYCARFVFFLPYAMDYWGQGTLVTVSS
VL: DIVMTQSPDSLAVSLGERATISCRASESVDNYGISFMKWFQQKPGQPPKLLIYAASNQGSGVPDRFSGSGSGTDFTLTISSLQAEDVAVYYCQQSKEVPWTFGGGTKVEIKRTVAAPSVFIFPPDIQMTQSPSSLSASVGDRVTITCRASQDVSTAVAWYQQKPGKAPKLLIYSASFLYSGVPSRFSGSGSGTDFTLTISSLQPEDFATYYCQQSYTTPPTFGQGTKVEIKR
notes: HC linker long, LC linker long; also called DVD449H; DVD449L
B5: DVD443 (bispecific antibody, IgG1)
VH: QVQLVQSGAEVKKPGASVKISCKASGYSFTAYYIHWVKQAPGQGLEWIGYISSYNGATNYNQKFKGRVTFTTDTSTSTAYMELRSLRSDDTAVYYCARDYDYDVGMDYWGQGTLVTVSSASTKGPEVQLVESGGGLVQPGGSLRLSCAASGFTISDYWIHWVRQAPGKGLEWVAGITPAGGYTYYADSVKGRFTISADTSKNTAYLQMNSLRAEDTAVYYCARFVFFLPYAMDYWGQGTLVTVSS
VL: DIVMTQSPDSLAVSLGERATISCRASESVDNYGISFMKWFQQKPGQPPKLLIYAASNQGSGVPDRFSGSGSGTDFTLTISSLQAEDVAVYYCQQSKEVPWTFGGGTKVEIKRTVAAPDIQMTQSPSSLSASVGDRVTITCRASQDVSTAVAWYQQKPGKAPKLLIYSASFLYSGVPSRFSGSGSGTDFTLTISSLQPEDFATYYCQQSYTTPPTFGQGTKVEIKR
notes: HC linker short, LC linker short; also called DVD443H; DVD443L
B6: DVD461 (bispecific antibody, IgG1)
VH: B5 VH
VL: B4 VL
notes: HC linker short, LC linker long; also called DVD461H; DVD461L
B7: DVD455 (bispecific antibody, IgG1)
VH: B4 VH
VL: B5 VL
notes: HC linker long, LC linker short; also called DVD455H; DVD455L
B8: DVD444 (bispecific antibody, IgG1)
VH: EVQLVESGGGLVQPGGSLRLSCAASGFTISDYWIHWVRQAPGKGLEWVAGITPAGGYTYYADSVKGRFTISADTSKNTAYLQMNSLRAEDTAVYYCARFVFFLPYAMDYWGQGTLVTVSSASTKGPQVQLVQSGAEVKKPGASVKISCKASGYSFTAYYIHWVKQAPGQGLEWIGYISSYNGATNYNQKFKGRVTFTTDTSTSTAYMELRSLRSDDTAVYYCARDYDYDVGMDYWGQGTLVTVSS
VL: DIQMTQSPSSLSASVGDRVTITCRASQDVSTAVAWYQQKPGKAPKLLIYSASFLYSGVPSRFSGSGSGTDFTLTISSLQPEDFATYYCQQSYTTPPTFGQGTKVEIKRTVAAPDIVMTQSPDSLAVSLGERATISCRASESVDNYGISFMKWFQQKPGQPPKLLIYAASNQGSGVPDRFSGSGSGTDFTLTISSLQAEDVAVYYCQQSKEVPWTFGGGTKVEIKR
notes: HC linker short, LC linker short; also called DVD444H; DVD444L
B9: DVD456 (bispecific antibody, IgG1)
VH: EVQLVESGGGLVQPGGSLRLSCAASGFTISDYWIHWVRQAPGKGLEWVAGITPAGGYTYYADSVKGRFTISADTSKNTAYLQMNSLRAEDTAVYYCARFVFFLPYAMDYWGQGTLVTVSSASTKGPSVFPLAPQVQLVQSGAEVKKPGASVKISCKASGYSFTAYYIHWVKQAPGQGLEWIGYISSYNGATNYNQKFKGRVTFTTDTSTSTAYMELRSLRSDDTAVYYCARDYDYDVGMDYWGQGTLVTVSS
VL: B8 VL
notes: HC linker long, LC linker short; also called DVD456H; DVD456L
B10: DVD462 (bispecific antibody, IgG1)
VH: B8 VH
VL: DIQMTQSPSSLSASVGDRVTITCRASQDVSTAVAWYQQKPGKAPKLLIYSASFLYSGVPSRFSGSGSGTDFTLTISSLQPEDFATYYCQQSYTTPPTFGQGTKVEIKRTVAAPSVFIFPPDIVMTQSPDSLAVSLGERATISCRASESVDNYGISFMKWFQQKPGQPPKLLIYAASNQGSGVPDRFSGSGSGTDFTLTISSLQAEDVAVYYCQQSKEVPWTFGGGTKVEIKR
notes: HC linker short, LC linker long; also called DVD462H; DVD462L
B11: DVD458 (bispecific antibody, IgG1)
VH: EVQLVESGGGLVQPGGSLRLSCAASGFTINASWIHWVRQAPGKGLEWVGAIYPYSGYTNYADSVKGRFTISADTSKNTAYLQMNSLRAEDTAVYYCARWGHSTSPWAMDYWGQGTLVTVSSASTKGPSVFPLAPQVQLVQSGAEVKKPGASVKISCKASGYSFTAYYIHWVKQAPGQGLEWIGYISSYNGATNYNQKFKGRVTFTTDTSTSTAYMELRSLRSDDTAVYYCARDYDYDVGMDYWGQGTLVTVSS
VL: DIQMTQSPSSLSASVGDRVTITCRASQVIRRSLAWYQQKPGKAPKLLIYAASNLASGVPSRFSGSGSGTDFTLTISSLQPEDFATYYCQQSNTSPLTFGQGTKVEIKRTVAAPDIVMTQSPDSLAVSLGERATISCRASESVDNYGISFMKWFQQKPGQPPKLLIYAASNQGSGVPDRFSGSGSGTDFTLTISSLQAEDVAVYYCQQSKEVPWTFGGGTKVEIKR
notes: DVD-Ig, outer AB071 / inner AB069; HC linker long, LC linker short; also called DVD458H; DVD458L
B12: DVD450 (bispecific antibody, IgG1)
VH: B9 VH
VL: B10 VL
notes: HC linker long, LC linker long; also called DVD450H; DVD450L

Molecular target: VEGF (VEGF 1-165 aa, R&D Systems 293-VE-010) (UniProt P15692 27-191)
Sequence (P15692 other isoform, or with tags, fused parts or gaps limits assumed): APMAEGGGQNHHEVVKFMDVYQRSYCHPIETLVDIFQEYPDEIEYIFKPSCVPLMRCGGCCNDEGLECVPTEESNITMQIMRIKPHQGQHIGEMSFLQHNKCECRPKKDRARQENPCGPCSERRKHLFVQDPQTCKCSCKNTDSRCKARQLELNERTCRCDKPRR
Test: Direct bind ELISA, VEGF coated on plate;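 also: ELISA screening of antibodies for binding to the plate-coated target antigen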
Procedure: Enzyme Linked Immunosorbent Assays to screen for antibodies that bind a desired target antigen were performed as follows. […] Plates were washed four times with PBS containing 0.02% Tween 20. Plates were blocked by the addition of 300 μL/well blocking solution (non-fat dry milk powder, various retail suppliers, diluted to 2% in PBS) for ½ hour at room temperature. Plates were washed four times after blocking with PBS containing 0.02% Tween 20.
Plates were washed 4 times with PBS containing 0.02% Tween 20.

Binder	EC50 [nM]
B1	19.3
B2	0.3
B3	1730
B4	15.6
B5	611
B6	10.4
B7	26.7
B8	2.44
B9	1.63
B10	8
B11	21.5
B12	12.1
